# Test results from article PMC4846058.
# What was measured:
# [1] = molecular target: ixekizumab (human); assay: SPR
# [2] = molecular target: cynomolgus monkey IL-17A (Macaca fascicularis); assay: SPR
Substance,"KD, heterogeneous ligand model, first set [1] [nM]","KD, heterogeneous ligand model, second set [1] [nM]","koff, heterogeneous ligand model, first set [1] [s⁻¹]","koff, heterogeneous ligand model, second set [1] [s⁻¹]","kon, heterogeneous ligand model, first set [1] [M⁻¹ s⁻¹]",Kd [2] [nM]
rabbit IL-17A (ligand),1.3,14,0.00017,0.11,150000,
ixekizumab (antibody),,,,,,0.0008
